The values below are quoted from earlier work in publication PMC2934757.

pKd: −log10 of the molar value.

The target in this data set is IGF-1 (Homo sapiens) (UniProt P05019).
Sequence of UniProt P05019 (P05019 49-118): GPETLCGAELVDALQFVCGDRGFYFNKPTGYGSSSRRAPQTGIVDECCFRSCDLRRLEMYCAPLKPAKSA

IGFBP-2 1-248 (from UniProt P18065): the pKd was 8.15.

For orientation: pKd means −log10 of the Kd, conventionally taken in molar units.
